In the DeepSol protein solubility set:

Test: soluble on expression in E. coli; label from the status in PepcDB or PDB records

Sequence | soluble on expression in E. coli
MGSDKIHHHHHHMAGTCGLTLGKYAPLHKGHQLVIETALAEMDEVLVMIYECPEVTAIPLTVRANWLRKIYPQILVIEAWDGPTEVGDTSEIKKMHEDYILKQLESKKITHFYCSEFYGEHVSQALGAVNRLVDCDRKTFPISGTQVRTDTYAMREYLHPDVYRDLIANIVFLGAPSTGKTTIASQLAKEYNTVWMPEYGREYWEKNQINRRLSLLQLVEIAKGHLEREEALLLQANQYLFTDTNALTTYQFSLYYHKTVAPELVQLAHQAMSRYDLVFLCDLDIPYDDTWDRSGEANRSIFQKQIESDLIVRKIPFFRLSGDLMTRISIVKKVLYYYQKYASLGELFFNKLIL | not soluble
MKEYLKEKAHQLPLTPGVYLMKDATDTIIYVGKAKKLKNRVSSYFINSNQHSRKTMRLVKQIIDFDVLHTDTELDALLLECQLIQQYRPRYNRQMNAYEQYSYVSVAVNERQLEIKLLNIPTKENCFGPYSIRRKLNRLKIILDSIYDLVPTNYWHQTFQKESAIPTELFQQELFDFFHNQGREPIKRIAQQMQEAAEKQAFEKAAKLKEDWLFLTRFANQNQRISQANQRDWQLMWLPCQKKIKYYLIYQGLVVATRVVTKQTFQKYSPLELAKKIMPKKPPKTIEHYSKQQVDFLNILYGYISRHPECHLENLTIEKA | not soluble
TTFFGRETAFFNGTEKLGRKFSLPVVYMDVEKTGHDVFTGTIKLLHHPQDDSPEGSITEEYVRLMETTIRRDPSQWLWSHRRWKRPRLHNTRQL | not soluble
LINETSRRLNQRLTLTDTMNDLAVRMAESFQAEEVGFFHIDHFENLTLLPGSTAFFKEAKPSDFYNELKEKLYEGEKGVFIGNGQSVFGKAGYGSLMAAPMIQNDRLLGFAVLLKQELYAFTFEMYKLFQALIHHATLAVTNSMLRDRLE | soluble
SAVFSDPQIAMVGETYKEITTRLGTCGCFATGEVSFENQGRSRVMLRNKGILHVYGEQGTGRFLGAEMMGPNAEHLAHLLAWAHQNKMTVSEMLDMPFYHPVIEEGVRTALRDLNAKLHLGPEMIKHCMDCGPGC | not soluble
SETQSFVVSVAGSDRVGIVHDFSWALKNISANVESSRMACLGGDFAMIVLVSLNAKDGKLIQSALESALPGFQISTRRASSVAERHVSPDTREYELYVEGPDSEGIVEAVTAVLAKKGANIVELETETLPAPFAGFTLFRMGSRVAFPFPLYQEVVTALSRVEEEFGVDIDLEEVVEGEDSEEDDDSPNSPVGRH | soluble
MGSDKIHHHHHHMKTAILDRFVFSDEVRDIIENAPEIIIPESRKEILDLAIAGRDLFEVGYEVPGKGFVVEATVTRCKNGLVVNYPEPYMRRRDPNALVVGDNLETDKPRFRERFGKEFEPIRQETFEWLKKQELILLPFMAGGYDYGYPAVLIAPKNAGFFVGGLADLQFFVPASEVPENFKPKLYMFLAPPFRHTHFDGKQVVVHYRHNSHYEIFSYNLYPGPSAKKGVYGFLLHVGEKEKWVTAHASAVKVITPYENELVIMHEGASGGGKSEILEEIHREPDGRIKLAENIVTGEKFYMELKQSCVLMPVADDMFMCHPKLQTGKKLVAKDAEAGWFIRVDHITEYGSAPDLERLTIHPPEPLIFLNIYAVPNSTALIWEHIEDEPGKPCPNPRVIIPKRFMKNAVSEPVKVDVRSFGVRTPPCTKEKPTYGIVGLMQILPPALAWLWRLVAPRGHANPSIVSTKGMTSEGVGSFWPFSSGKMVRLANILLEQIIDTPETRYILVPNQYIGAYKVGFMPEWIAREYLSRRGGVRFRPDQLVPSKCSLLGFSLKEMKIEGNTIPKELLQPHLQSEVGEEAYEKGAQELKDFFKRELKKFLTEDLNPVGREIIQCCLDDGSLDDYLKIIPMNF | not soluble
SATQIPSTISILATSDIHGNVLNYDYATGKAPTNTQGLAKVSSYVNSVRASKPNVMLIDDGDTIQGTPLSYYYDKIDTTSEYPLMKIMGAMKYDTWTLGNHEFNYGLPTLNRVISDARKENINVLSANTYNSDNTNFVNPYYIKTFNINGKTVNVGILGLTTKCIPDWEDPSHYAGLHFNDLVDEAKLWVPRMKAAGANVVIVAAHSGEEGAADTIPENQIKAIATNVSGIDAIVAGHAHVTVNDTSLKNPNGKTVPVVEPNKWGTFVSQIDITLDNSGNASTINTQNVKMTDSIPEDPNIVNIIQPYQNKTLDYIST | not soluble
MRITLVTDSTSDLPQDLRGRLGVRVVPLYVNLSGAIYRDWEEITPTEIFQKVREGAAFPTTSQPSPEDFARVYREALEEADHVLSLHISGKLSGTVQSAELAAQEFPGRVTVVDTQAASLGVGMMVLRAKELLEEGQSLEAVLAELERLRRDHFVRFSVATLEFLKRGGRIGGAQAFLGTLLNLKPVLTLKEGRVEAAGRARGEKKAREEILKAFRAWAEGRKRIRAYFLYSGDEDAVAALRQEVLASGLPVEEALVNELGAVIASHTGPGTYGFYAYSL | soluble
MGSDKIHHHHHHMRIDLSLKPTPVQFLKRLSEKYGFNIYVKRDDLTELVGSGNKIRKLEYLLWEALKKGATTVFTCGGLQSNHARATAYVSRRYGLKPVLFLRKGEKVLNGNLLLDILLGAEIVEVSPEEYERIDEIFDVHKKMREKKGEKVYVIPEGGSNSLGAFGYFNAVLEMKDQLNLESFDAIVCAVGSGGTIAGLSAGISFLEYHVPVVGVNVTTKNSDYFVGKVKRIISGMEEYGLRVNETVFEVVDDYRGPGYAIPSSEDVEILKEVASIEGIILDPVYTAKAFRGMIEMFRNSEKNVLFIHTGGIFGLFAQSRRLV | not soluble
MGSDKIHHHHHHCAASWVHPLTGAHLLLFGTEQGIYSFDTNCMPDGNLSKIHHRRCSWMFVYADRLTAIQGNTPYVYRHDLVALTQKNLTLKMSKNLNKIPEKYVPKRLAITVRMPETRGALQCTVKRGQGAQANSLFLCCAVRKTVHLFQWYNPMNQFVLVRSEPIREDIRFPIRPFALINSRTSDFPELCIGVGQMSGSNEYQFNMINFCSSTNNSELSGDLNSSYGSLADDEMLEVGSMHQIDRDTLCFSFRNKVVLTDLQGFERPKPSIFTFNFHIEYLHVVDGTILAFHANGVQGRDLKSNLNTQDLCDVSRLYRVIGDDRVIILRSQP | not soluble
MGSDKIHHHHHHMTIDTSFNFKSDTPAEKDPDTWSPTLAAYHKLLWSKSLPNGRVFTLEYEKPPFYLRHRSDVGEFCLSSDTVVPSFRKKTIDGVAKDEMNFGGLGYTIGGMMVFPAIPIERKWTINQARGCNRKISDRFDLTVECIRRYYSDAQSPLDDVLRRYVDFFTLFRDFAGYVEFFHLQDVVNSDFTAVKFFLPFEDFEATSPIPQSRDAYLQYRSAAIDFLNARNQRIQNWVAKNIKG | not soluble
MGSDKIHHHHHHMTQEMILANATLILAGETRTGCVKISDSVIADIADGSSVPAGAVDLEGDFLSPGLVELHTDNLERHIEPRPGVDWPHAAALVAHDAELASTGITTVFDAMRVGSIPSGKGRYIKYARQLASEMLDLRTKDMLKISHFLHLRAEVCSETLAEELAEFTAEDRVGLVSLMDHTPGQRQFRDIAKLEQYVKSKRGMSDEEFINHVAQLKDLRARFGDLHEATTVAEAARFGAVLASHDDTTADQVQTSAGHGIRLAEFPTTVEAARACHAHGIKVMMGAPNLIRGGSHSGNVAARELADLELLDIVSSDYIPAALLQAAVKLGEIWGDLARGMATVTAAPAASVGLTDRGVLEVGKRADLIRFRTREGVPMLRAVYSRGARVA | not soluble
MGSDKIHHHHHHMSSIIAALTYFFKEVLVFVSYVKNNAFPQPLSKEEERHYLKRMAEGDEEARNRLIEHNLRLVAHIVKKFENTREHTEDLISIGTIGLIKAIESFSEGKGTKLATYAARCIENEILMHLRALKKVKKDVSLHDPIGTDKEGNEITLIDVLQEDSEDIADSIQLKMEKKQIYEYIHVLDDREKEVIVGRFGLDLEEERTQREIAKELGISRSYVSRIEKRALMKLFHEFYKHNHGKG | not soluble
GASIRWEWRAARFADYLLQTRLKSRNNGLRVVYSITINLVPNHLDKRAHKYLGMVRQASRKYGVDESLILAIMQTESSFNPYAVSHADAMGLMQVVQHSAGRDVFRSQGKSGLPSRSYLFDPANNIDTGTAYLAMLNNVYLAGIDNPTSRRYAVITAYNGGAGSVLRVFSSDKVQAANIINSMAPGDVYQTLTTRHPSAESRRYLYKVNTAQKSYRRK | not soluble
MTQTTQSPALIASQSSWRCVQAHDREGWLALMADDVVIEDPIGKSVTNPDGSGIKGKEAVGAFFDTHIAANRLTVTCEETFPSSSPDEIAHILVLHSEFDGGFTSEVRGVFTYRVNKAGLITNMRGYWNLDMMTFGNQE | soluble
MGSDKIHHHHHHMTEADLFVSQFLTEKLTALFPNVPVLSEENCHISFEERKNWKEYWLIDPLDGTQQFINRTDQFSVLITLVRKNKPVLSVIHAPILSTTYYAMCDFGTFKKQLDQVKKLTKNTTNFDRPLRIAVGATTSQEKVRSILPKDFPCEFVVVGSSSLKSGLVAEGAVDCYVRLGQTGEWDTAGAEVLLGETHGAIFDSHFEPLTYNQRETLINPHFVMVGDQSFDWRSIFQFN | not soluble
MNWVTHKPTFEFDNFSPFIRANTAWLGHLEFAYDLVRFEKPEILVELGTHMGASFFSFCQGVKDGGLATKCFAVDTWTGDGHTGPYGEGVFHIVDKVVKTSYPNIGNLIKSTFDEAVDQFQDGTINLLHIDGYHTYEAVSHDYKTWLPKLADNGIVLFHDIEVKDRNFGVYKFWDEVKAKYPHFQFQHSYGLGVLFPKGCSDRFKEILKNKEEIQDMYKLEHHHHHH | soluble
MSTSNAQSGRAAAIARRNAQVKGKGYTASAAPAAPRKPAAPVAEPVVAAAPAPSQPSRSRRKVSVAPTATPAASAAGREAAKLKRQQQKNGKSSAGAANAMPHPKAKAKQKPEEPIVEPRQAKAEKPTKRSERRTGVKPQVASQQPSGRLQSKAYRKAQAKGKAGQEAFKSNGSSQSGAKAKLANPDASTREIAQQVRAERCAQGKTCSTGGSRPMRKRRNAKEAPQKVGESQTLHGQSVSGTQVGQGEKKMTGSESGACQLVSGTEYLGAEEFSKNCDVQPTPQPAKVTQTQTTRGQVVSGSTKVGRSDKMTGNETGTCSAITGTEYLPADQSKMYCGETPAKSKATGFSVMSQATQKSEQKVTGGDSRKSQSTTFKPKNPASAPHKVMPSQTAKGNTTTGSQVGRLESVTGGERGSCHAVTGTGYQGAEEAKACDMPMTETADKVTASGTAGGQKVTGDRSGAYYGMTGAEAGDCKTITGTSYTGTEQFQFCSVDEQNEMKVRQRKGANPSISGVQPGPQGLTGAQKGACELVTGSHYQGGDQTAMVCDSTNAAAPGESDFPAMIGQAQPAFSTNEVEPMVDEGSKITGDGWDRGSKVTGTDGPWAAQRNASIRGVAGQSPMGASQYRPVNNEVPMSPITGSSGNTDTGAKVTLSGGARA | not soluble
KFSPEFGIFMNIGASKIFTKTEVDQNEYSYLVDFRTIKGDIFLDFEAIFQLGVKNNINNNIVTGLTSLLEIGYSPYIISTKYEGESDSIYYIFTDRVILYSLVLGALEKIVFNNFSIGIGAGVLFPISGFAASNHPRNIISVMPSENLSIISPYNSKLDYAYIKKLFKVPVAPYIKITAEYAFKPYKIDNAEMDFVLGAYLSYNFGMQYDVSVLNSNIPKQGDNGLIIPGISSKDMFYKYDYSNLDFGVTFGVSFRALE | not soluble
MSLSKIKEIRTKVYQWNGKTVPPQNNFCTNASDLLFEKSDAMGSFRFHEWLICEIETDDGVIGIGNAALAPQIAKKTIDTYLKPLVIGEDPFDYAYIWEKMYRRTHAWGRRGIGMVAISAIDIAIWDIMGKITNKPVFKLLGGRTKEKIPVYASKLYSQPIKALQKEAESYVKQGFKMFKMRFGWGPKDGPDGMKKNIALAEAVREVIGEDTDLMMECYMGWNLDYAKRMIPKLMKFNPRWLEEPVIADDIHGYEELNKMNMIPISGGEHEFNIFGFKQLLDLKAVSYIQYDNNRVGGFTAAQKINAIAEAHQVPVIPHAGQMHNYHLTMSNFNCPISEFFPVHDVEIGNELFYYIFEGDPAPKDGFIDLDDNKPGLGLTITDKYKSDFKIIEEGHHHHHH | soluble
